Data reported in US20250002610A1 (Genmab, published 2025).

T1: human DR4 (Death Receptor 4), cell surface expressed on human tumor cell lines (human, UniProt O00220 24-468)
T1 construct: also called TNFRSF10A; TRAIL-R1
T1 sequence: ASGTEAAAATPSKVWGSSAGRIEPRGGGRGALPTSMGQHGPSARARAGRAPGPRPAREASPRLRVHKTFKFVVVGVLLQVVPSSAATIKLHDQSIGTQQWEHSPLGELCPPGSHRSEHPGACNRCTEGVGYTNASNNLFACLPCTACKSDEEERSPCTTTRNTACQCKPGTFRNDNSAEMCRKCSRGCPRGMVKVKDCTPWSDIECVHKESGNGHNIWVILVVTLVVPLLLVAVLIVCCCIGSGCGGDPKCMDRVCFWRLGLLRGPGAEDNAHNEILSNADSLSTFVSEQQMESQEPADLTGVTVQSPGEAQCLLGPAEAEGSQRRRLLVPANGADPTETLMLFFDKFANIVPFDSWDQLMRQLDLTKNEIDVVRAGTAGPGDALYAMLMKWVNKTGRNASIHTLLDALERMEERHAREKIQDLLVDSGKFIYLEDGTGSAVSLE

T2: dog FAPα on Expi293F cells (dog (Canis familiaris), UniProt A5D7B7 1-760 (bovine entry))
T2 chain: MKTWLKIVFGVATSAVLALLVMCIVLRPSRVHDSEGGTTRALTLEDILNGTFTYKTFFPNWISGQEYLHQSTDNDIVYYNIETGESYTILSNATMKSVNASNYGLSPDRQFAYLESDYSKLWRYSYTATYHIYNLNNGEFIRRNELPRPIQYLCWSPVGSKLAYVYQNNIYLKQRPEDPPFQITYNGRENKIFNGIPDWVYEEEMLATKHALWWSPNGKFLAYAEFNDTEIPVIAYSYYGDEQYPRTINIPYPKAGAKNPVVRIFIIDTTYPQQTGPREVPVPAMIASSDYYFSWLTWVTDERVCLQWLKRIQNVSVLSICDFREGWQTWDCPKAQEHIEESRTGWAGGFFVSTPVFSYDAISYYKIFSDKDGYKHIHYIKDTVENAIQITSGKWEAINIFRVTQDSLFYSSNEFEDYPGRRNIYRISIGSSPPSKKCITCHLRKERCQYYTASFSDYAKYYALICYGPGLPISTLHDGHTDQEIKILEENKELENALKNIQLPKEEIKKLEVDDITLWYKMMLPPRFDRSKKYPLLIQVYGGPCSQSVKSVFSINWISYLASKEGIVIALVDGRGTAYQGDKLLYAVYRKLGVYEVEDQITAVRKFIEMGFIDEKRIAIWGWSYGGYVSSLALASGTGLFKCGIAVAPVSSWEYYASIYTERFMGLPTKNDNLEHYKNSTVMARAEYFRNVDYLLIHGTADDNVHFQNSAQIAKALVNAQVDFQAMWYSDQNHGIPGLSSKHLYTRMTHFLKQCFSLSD


Columns and labels:
[1] = molecular target: T1, human DR4 (Death Receptor 4), cell …; test: flow cytometry, MDA-MB-231 cells, n = 1
[2] = molecular target: T1, human DR4 (Death Receptor 4), cell …; test: flow cytometry, MDA-MB-231 cells, average ± SEM
[3] = molecular target: T1, human DR4 (Death Receptor 4), cell …; test: flow cytometry, HCT-15 cells, n = 3
[4] = molecular target: T1, human DR4 (Death Receptor 4), cell …; test: flow cytometry, PANC-1 cells, n = 1
[5] = molecular target: T2, dog FAPα on Expi293F cells; test: flow cytometry on Expi293F cells transiently expressing dog FAPα, gMFI PE
Method: Binding of BisG1-FAPα-FERL/DR4-FERR, BisG1-FAPα-FEAL/b12-FEAR and IgG1-FAPα-FERL to FAPα of species commonly used for nonclinical toxicology studies was assessed by flow cytometry using Expi293F cells transiently expressing FAPα from different animal species. IgG1-b12 was included as negative control.
Expi293F cells expressing recombinant FAPα from various species (human, cynomolgus monkey, dog, pig, rat or mouse) were seeded (20,000 cells/well) in 96-Well round bottom plates (Greiner Bio-one, Cat #650101). Antibody dilutions were prepared using FACS buffer, consisting of PBS (Capricorn Scientific, Cat #PBS-10XA, diluted to 1×PBS in distilled water)+1% BSA (Roche, Cat #10735086001)+0.02% Sodium Azide (Bio-World, Cat #41920044-3). Plates were centrifuged, supernatant was removed, and cells were resuspended in 100 μL of antibody dilutions (concentration range 30-0.00017 μg/mL with three-fold serial dilutions using FACS buffer) of BisG1-FAPα-FERL/DR4-FERR, BisG1-FAPα-FEAL/b12-FEAR, IgG1-FAPα-FERL and IgG1-b12 and incubated for 30 min at 4° C. […] After 30 min incubation at 4° C., cells were washed with FACS buffer and resuspended in FACS buffer supplemented with TO-PRO-3 Iodide viability marker (Invitrogen, Cat #T3605, diluted 1:4,000). Antibody binding to viable cells (gMFI of PE on TO-PRO-3 negative cells) was analyzed by flow cytometry on a FACS Celesta and FACS_Diva software (first two experiments) or iQue® 3 and FlowJo software (last experiment). gMFI was determined and visualized using GraphPad Prism. Binding curves were analyzed using nonlinear regression analysis. The concentration (pg/mL) at which 50% of the maximal effect was observed (EC₅₀) was derived from the fitted curves.

Binder | EC50 [1] | EC50 [2] | EC50 [3] | EC50 [4] | binding result [5] | Max MFI (at 90 µg/mL) [2]
IgG1-DR4-FERR (antibody, V domains shown, Bivalent monoclonal IgG1 lambda) VH: QVQLQESGPGLVKPSGTLSLTCAVSGGSISSYSWWSWIRQPPGKGLEWIGELYHSGSTNYNPSLKSRVTISVDKSKNQFSLKLRSVTAADTAVYYCVRGVATIDYWGQGTLVTVSS VL: QSALTQPPSASGSPGQSVTISCTGTSSDVGGYNFVSWYQQDPGKAPKLLIYEVTKRPSGVPDRFSGSKSGNTASLTVSGLQAEDEADYYCSSYAGSNNVMFGGGTKLTVLG | 0.33 µg/mL | 0.25 µg/mL | 0.15 µg/mL | 0.68 µg/mL |  | 
BisG1-FAPα-FEAL/b12-FEAR (bispecific antibody, human IgG1, kappa, Fab-arm exchange of IgG1-FAPα-FEAL and IgG1-b12-FEAR) heavy 1: EVQLLESGGGLVQPGGSPRLSCEASGFTFSSYALSWVRQAPGKGLEWVSAISGSGGGRYYADSVKGRFTISRDNSKNTLFLQMNSLRAEDTAVYYCAKEGYSSSGTYWDHWGQGTLVTVSSASTKGPSVFPLAPSSKSTSGGTAALGCLVKDYFPEPVTVSWNSGALTSGVHTFPAVLQSSGLYSLSSVVTVPSSSLGTQTYICNVNHKPSNTKVDKRVEPKSCDKTHTCPPCPAPEFEGGPSVFLFPPKPKDTLMISRTPEVTCVVVAVSHEDPEVKFNWYVDGVEVHNAKTKPREEQYNSTYRVVSVLTVLHQDWLNGKEYKCKVSNKALPAPIEKTISKAKGQPREPQVYTLPPSREEMTKNQVSLTCLVKGFYPSDIAVEWESNGQPENNYKTTPPVLDSDGSFLLYSKLTVDKSRWQQGNVFSCSVMHEALHNHYTQKSLSLSPG light 1: AIQMTQSPSSVSASVGDRVTITCRASQGVSSWLAWYQQKPGRAPKLLIYVASTLQSGVPSRFSGSGSGTDFTLTINSLQPEDFATYYCQQANSFPPTFGQGTRLEMKRTVAAPSVFIFPPSDEQLKSGTASVVCLLNNFYPREAKVQWKVDNALQSGNSQESVTEQDSKDSTYSLSSTLTLSKADYEKHKVYACEVTHQGLSSPVTKSFNRGEC heavy 2: QVQLVQSGAEVKKPGASVKVSCQASGYRFSNFVIHWVRQAPGQRFEWMGWINPYNGNKEFSAKFQDRVTFTADTSANTAYMELRSLRSADTAVYYCARVGPYSWDDSPQDNYYMDVWGKGTTVIVSSASTKGPSVFPLAPSSKSTSGGTAALGCLVKDYFPEPVTVSWNSGALTSGVHTFPAVLQSSGLYSLSSVVTVPSSSLGTQTYICNVNHKPSNTKVDKRVEPKSCDKTHTCPPCPAPEFEGGPSVFLFPPKPKDTLMISRTPEVTCVVVAVSHEDPEVKFNWYVDGVEVHNAKTKPREEQYNSTYRVVSVLTVLHQDWLNGKEYKCKVSNKALPAPIEKTISKAKGQPREPQVYTLPPSREEMTKNQVSLTCLVKGFYPSDIAVEWESNGQPENNYKTTPPVLDSDGSFFLYSRLTVDKSRWQQGNVFSCSVMHEALHNHYTQKSLSLSPG light 2: EIVLTQSPGTLSLSPGERATFSCRSSHSIRSRRVAWYQHKPGQAPRLVIHGVSNRASGISDRFSGSGSGTDFTLTITRVEPEDFALYYCQVYGASSYTFGQGTKLERKRTVAAPSVFIFPPSDEQLKSGTASVVCLLNNFYPREAKVQWKVDNALQSGNSQESVTEQDSKDSTYSLSSTLTLSKADYEKHKVYACEVTHQGLSSPVTKSFNRGEC |  |  |  |  | binds | 
BisG1-b12-FERL/DR4-FERR (bispecific antibody, human IgG1, kappa, lambda, Fab-arm exchange of IgG1-b12-FERL and IgG1-DR4-FERR; also called bsIgG1-ctrl-FERLxDR4-FERR) heavy 1: QVQLVQSGAEVKKPGASVKVSCQASGYRFSNFVIHWVRQAPGQRFEWMGWINPYNGNKEFSAKFQDRVTFTADTSANTAYMELRSLRSADTAVYYCARVGPYSWDDSPQDNYYMDVWGKGTTVIVSSASTKGPSVFPLAPSSKSTSGGTAALGCLVKDYFPEPVTVSWNSGALTSGVHTFPAVLQSSGLYSLSSVVTVPSSSLGTQTYICNVNHKPSNTKVDKRVEPKSCDKTHTCPPCPAPEFERGPSVFLFPPKPKDTLMISRTPEVTCVVVDVSHEDPEVKFNWYVDGVEVHNAKTKPREEQYNSTYRVVSVLTVLHQDWLNGKEYKCKVSNKALPAPIEKTISKAKGQPREPQVYTLPPSREEMTKNQVSLTCLVKGFYPSDIAVEWESNGQPENNYKTTPPVLDSDGSFLLYSKLTVDKSRWQQGNVFSCSVMHEALHNHYTQKSLSLSPG light 1: EIVLTQSPGTLSLSPGERATFSCRSSHSIRSRRVAWYQHKPGQAPRLVIHGVSNRASGISDRFSGSGSGTDFTLTITRVEPEDFALYYCQVYGASSYTFGQGTKLERKRTVAAPSVFIFPPSDEQLKSGTASVVCLLNNFYPREAKVQWKVDNALQSGNSQESVTEQDSKDSTYSLSSTLTLSKADYEKHKVYACEVTHQGLSSPVTKSFNRGEC heavy 2: QVQLQESGPGLVKPSGTLSLTCAVSGGSISSYSWWSWIRQPPGKGLEWIGELYHSGSTNYNPSLKSRVTISVDKSKNQFSLKLRSVTAADTAVYYCVRGVATIDYWGQGTLVTVSSASTKGPSVFPLAPSSKSTSGGTAALGCLVKDYFPEPVTVSWNSGALTSGVHTFPAVLQSSGLYSLSSVVTVPSSSLGTQTYICNVNHKPSNTKVDKRVEPKSCDKTHTCPPCPAPEFERGPSVFLFPPKPKDTLMISRTPEVTCVVVDVSHEDPEVKFNWYVDGVEVHNAKTKPREEQYNSTYRVVSVLTVLHQDWLNGKEYKCKVSNKALPAPIEKTISKAKGQPREPQVYTLPPSREEMTKNQVSLTCLVKGFYPSDIAVEWESNGQPENNYKTTPPVLDSDGSFFLYSRLTVDKSRWQQGNVFSCSVMHEALHNHYTQKSLSLSPG light 2: QSALTQPPSASGSPGQSVTISCTGTSSDVGGYNFVSWYQQDPGKAPKLLIYEVTKRPSGVPDRFSGSKSGNTASLTVSGLQAEDEADYYCSSYAGSNNVMFGGGTKLTVLGQPKAAPSVTLFPPSSEELQANKATLVCLISDFYPGAVTVAWKADSSPVKAGVETTTPSKQSNNKYAASSYLSLTPEQWKSHRSYSCQVTHEGSTVEKTVAPTECS | 1.14 µg/mL | 0.67 µg/mL | 0.53 µg/mL | 1.35 µg/mL |  | 7840 MFI
IgG1-FAPα-FERL (antibody, Bivalent monoclonal IgG1 kappa) heavy: EVQLLESGGGLVQPGGSPRLSCEASGFTFSSYALSWVRQAPGKGLEWVSAISGSGGGRYYADSVKGRFTISRDNSKNTLFLQMNSLRAEDTAVYYCAKEGYSSSGTYWDHWGQGTLVTVSSASTKGPSVFPLAPSSKSTSGGTAALGCLVKDYFPEPVTVSWNSGALTSGVHTFPAVLQSSGLYSLSSVVTVPSSSLGTQTYICNVNHKPSNTKVDKRVEPKSCDKTHTCPPCPAPEFERGPSVFLFPPKPKDTLMISRTPEVTCVVVDVSHEDPEVKFNWYVDGVEVHNAKTKPREEQYNSTYRVVSVLTVLHQDWLNGKEYKCKVSNKALPAPIEKTISKAKGQPREPQVYTLPPSREEMTKNQVSLTCLVKGFYPSDIAVEWESNGQPENNYKTTPPVLDSDGSFLLYSKLTVDKSRWQQGNVFSCSVMHEALHNHYTQKSLSLSPG light: AIQMTQSPSSVSASVGDRVTITCRASQGVSSWLAWYQQKPGRAPKLLIYVASTLQSGVPSRFSGSGSGTDFTLTINSLQPEDFATYYCQQANSFPPTFGQGTRLEMKRTVAAPSVFIFPPSDEQLKSGTASVVCLLNNFYPREAKVQWKVDNALQSGNSQESVTEQDSKDSTYSLSSTLTLSKADYEKHKVYACEVTHQGLSSPVTKSFNRGEC |  |  |  |  | binds | 
